Literature values, collected in paper PMC8512968.

Biological target: band 3 cytoplasmic domain (Homo sapiens) (UniProt P02730)
Assay: sedimentation equilibrium AUC

For “band 3 cytoplasmic domain (from UniProt P02730)”, the Kd is listed as 2800 nM.
